# Source: patent publication US20170267761A1
# Biological target: Sortilin SORTECD_HIS (human) (UniProt Q99523)
# Assay: HTRF, displacement of PGRN from His-tagged Sortilin ECD
# Chain of Sortilin SORTECD_HIS (human) (Q99523 other isoform, or with tags, fused parts or gaps limits assumed): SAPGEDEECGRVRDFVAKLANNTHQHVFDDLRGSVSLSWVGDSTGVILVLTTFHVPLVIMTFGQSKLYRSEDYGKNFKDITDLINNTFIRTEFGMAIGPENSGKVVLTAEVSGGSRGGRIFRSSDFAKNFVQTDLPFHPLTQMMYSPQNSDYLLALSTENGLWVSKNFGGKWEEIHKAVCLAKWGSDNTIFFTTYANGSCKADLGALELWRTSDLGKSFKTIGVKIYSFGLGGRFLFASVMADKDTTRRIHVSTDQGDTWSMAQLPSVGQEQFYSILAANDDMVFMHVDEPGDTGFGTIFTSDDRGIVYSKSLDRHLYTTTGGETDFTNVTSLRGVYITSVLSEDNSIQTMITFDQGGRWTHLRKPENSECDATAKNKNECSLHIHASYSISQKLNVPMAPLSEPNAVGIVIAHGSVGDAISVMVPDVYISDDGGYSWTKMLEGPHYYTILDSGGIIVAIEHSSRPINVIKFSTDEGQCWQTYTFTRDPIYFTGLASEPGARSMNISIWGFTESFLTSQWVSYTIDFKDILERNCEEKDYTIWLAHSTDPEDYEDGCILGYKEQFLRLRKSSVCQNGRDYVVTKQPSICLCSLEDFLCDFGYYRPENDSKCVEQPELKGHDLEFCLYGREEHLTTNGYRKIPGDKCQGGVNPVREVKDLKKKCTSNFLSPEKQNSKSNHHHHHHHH
substance,measurement,value
IgG1-b12 (antibody),% inh highest conc,37%
same,% inhibition at 1 µM,37%
